Laboratory results: the FLAb antibody collection
“And” between values parts separate entries of the source, which are not always exact repeats. Equal values may be shown once.

Test: patients with anti-drug antibodies; higher = more immunogenic

Protein	patients with anti-drug antibodies
unnamed (protein) chain 1: EVQLVESGGGLVQPGRSLRLSCAASRFTFDDYAMHWVRQAPGKGLEWVSGISWNSGRIGYADSVKGRFTISRDNAENSLFLQMNGLRAEDTALYYCAKGRDSFDIWGQGTMVTVSS chain 2: DIQMTQSPSSVSASVGDRVTITCRASQGISSWLAWYQQKPGKAPKLLIYGASSLESGVPSRFSGSGSGTDFTLTISSLQPEDFASYYCQQANSFPYTFGQGTKLEIK	3.8%
unnamed (protein) chain 1: QVQLQQSDAELVKPGASVKISCKASGYTFTDHAIHWAKQKPEQGLEWIGYISPGNDDIKYNEKFKGKATLTADKSSSTAYMQLNSLTSEDSAVYFCKRSYYGHWGQGTTLTVSS chain 2: DIQMTQSPASLSVSVGETVTITCRASENIYSNLAWYQQKQGKSPQLLVYAATNLADGVPSRFSGSGSGTQYSLKINSLQSEDFGSYYCQHFWGTPYTFGGGTRLEIK	55%
unnamed (protein) chain 1: EVQLQQSGPELEKPGASVKLSCKASGYSFTGYNMNWVKQSHGKSLEWIGHIDPYYGDTSYNQKFRGKATLTVDKSSSTAYMQLKSLTSEDSAVYYCVKGGYYGHWYFDVWGAGTTVTVSS chain 2: DIQMTQSPSSLSASLGERVSLTCRASQDIGSSLNWLQQGPDGTIKRLIYATSSLDSGVPKRFSGSRSGSDYSLTISSLESEDFVDYYCLQYVSSPPTFGAGTKLELK	58%
unnamed (protein) chain 1: QVQLVESGGGLVQPGGSLRLSCAASGFTFRSHWLSWVRQAPGKGLEWVSNINYDGSSTYYADSVKGRFTISRDNSKNTLYLQMNSLRAEDTAVYYCARDTYLHFDYWGQGTLVTVSS chain 2: DIALTQPASVSGSPGQSITISCTGTSSDVGDINDVSWYQQHPGKAPKLMIYDVNNRPSGVSNRFSGSKSGNTASLTISGLQAEDEADYYCQSYAGSYLSEVFGGGTKLTVL	0%
unnamed (protein) chain 1: EVQLVESGGKLLKPGGSLKLSCAASGFTFSSFAMSWFRQSPEKRLEWVAEISSGGSYTYYPDTVTGRFTISRDNAKNTLYLEMSSLRSEDTAMYYCARGLWGYYALDYWGQGTSVTVSS chain 2: QIVLIQSPAIMSASPGEKVTMTCSASSSVSYMYWYQQKPGSSPRLLIYDTSNLASGVPVRFSGSGSGTSYSLTISRMEAEDAATYYCQQWSGYPYTFGGGTKLEIK	0.2%
unnamed (protein) chain 1: EVQLVESGGGLVQPGGSLRLSCAASGFTFSPFAMSWVRQAPGKGLEWVAKISPGGSWTYYSDTVTGRFTISRDNAKNSLYLQMNSLRAEDTAVYYCARQLWGYYALDIWGQGTTVTVSS chain 2: EIVLTQSPATLSLSPGERATLSCSASISVSYMYWYQQKPGQAPRLLIYDMSNLASGIPARFSGSGSGTDFTLTISSLEPEDFAVYYCMQWSGYPYTFGGGTKVEIK	2.9%
unnamed (protein) chain 1: EVQLVESGGGLVQPGGSLRLSCAASGFTFSRYSMSWVRQAPGKGLELVAQINSVGNSTYYPDTVKGRFTISRDNAKNTLYLQMNSLRAEDTAVYYCASGDYWGQGTLVTVSS chain 2: DVVMTQSPLSLPVTLGQPASISCRSSQSLIYSDGNAYLHWFLQKPGQSPRLLIYKVSNRFSGVPDRFSGSGSGTDFTLKISRVEAEDVGVYYCSQSTHVPWTFGQGTKVEIK	3.5%
unnamed (protein) chain 1: EVQLVESGGDLVQPGRSLRLSCVASGFTFDDYAMHWVRQAPGKGLEWVSGVSWSGSTVGYADSVKGRFTVSRDNAQKSLYLQMNSLRAEDTALYYCVKDAYKFNYYYYGLDVWGQGTTVTVSS chain 2: EIVMTQSPATLSVSPGERATLSCRASQTILSNLAWYLQKPGQAPRLLIYGASTRATGLPARFSGSGSGTEFTLTISSLQSEDFAVYYCQQYNNWPLTFGGGTKVEIK	5%
unnamed (protein) chain 1: EVQLVESGGGLVKPGGSLRLSCAASGFTFSNYAMSWVRQAPGKGLEWVATISSGGSHTYYLDSVKGRFTISRDNSKNTLYLQMNSLRAEDTALYYCARLFTGYAMDYWGQGTLVTVSS chain 2: QIVLTQSPATLSLSPGERATMSCTASSSVSSSYLHWYQQKPGKAPKLWIYSTSNLASGVPSRFSGSGSGTDYTLTISSLQPEDFATYYCHQYYRLPPITFGQGTKLEIK	8%
unnamed (protein) chain 1: EVQLVESGGGLVQPGGSLRLSCAASGFTFSSHDMHWVRQATGKGLEWVSGIGTAGDTYYPDSVKGRFTISRENAKNSLYLQMNSLRAGDTAVYYCARDRYSPTGHYYGMDVWGQGTTVTVSS chain 2: DIQMTQSPSTLSASVGDRVTITCRASQSISSWLAWYQQKPGKAPKLLIYKASSLESGVPSRFSGSGSGTEFTLTISSLQPDDFATYYCKQYADYWTFGQGTKVEIK	3%
unnamed (protein) chain 1: QVQLQQWGAGLLKPSETLSLTCAVYGGSFSGYYWSWIRQPPGKGLEWIGEINHSGSTNYNPSLKSRVTISVDTSKNQFSLKLSSVTAADTAVYYCARGYYDILTGYYYYFDYWGQGTLVTVSS chain 2: EIVLTQSPATLSLSPGERATLSCRASQSVSRYLAWYQQKPGQAPRLLIYDASNRATGIPARFSGSGSGTDSTLTISSLEPEDFAVYYCQQRSNWPRTFGQGTKVEIK	4.4%
unnamed (protein) chain 1: QVQLQQSGAELVKPGASVKLSCKASGYTFRSYDINWVRQRPEQGLEWIGWIFPGDGSTKYNEKFKGKATLTTDKSSSTAYMQLSRLTSEDSAVYFCARWTVVGPGYFDVWGAGTTVTVSS chain 2: QIVLTQSPAIMSASPGEKVTITCSASSSVSYMNWFQQKPGTSPKLWIYSTSNLASGVPARFSGSGSGTSYSLTISRMEAEDAATYYCQQRSSYPNTFGGGTKLEIK	28%
unnamed (protein) chain 1: EVQLVQSGAEVKKPGESLKISCKGSGYSFTDYYMKWARQMPGKGLEWMGDIIPSNGATFYNQKFKGQVTISADKSISTTYLQWSSLKASDTAMYYCARSHLLRASWFAYWGQGTMVTVSS chain 2: DIVMTQSPDSLAVSLGERATINCESSQSLLNSGNQKNYLTWYQQKPGQPPKPLIYWASTRESGVPDRFSGSGSGTDFTLTISSLQAEDVAVYYCQNDYSYPYTFGQGTKLEIK	17.5%
unnamed (protein) chain 1: EVQLVESGGGLVQPGGSLRLSCAASGFTFSSSGMSWVRQAPGKGLEWVSVIASSGSNTYYADSVKGRFTISRDNSKNTLYLQMNSLRAEDTAVYYCARSIFYTTWGQGTLVTVSS chain 2: not shown	26%
unnamed (protein) chain 1: QVQLVQSGAEVKKPGSSVKVSCKASGYTFTDYEMHWVRQAPGQGLEWIGAVAPETGGTAYNQKFKGRATITADKSTSTAYMELSSLRSEDTAVYYCTSTVVPFAYWGQGTLVTVSS chain 2: QIQLTQSPSSLSASVGDRVTITCSASSSVSYMYWYQQKPGKAPKAWIYRTSNLASGVPSRFSGSGSGTDYTLTISSLQPEDFATYYCQQYQSLPLTFGGGTKVEIK	0%
unnamed (protein) chain 1: QMQLVESGGGVVQPGRSLRLSCAASGFTFRTYGMHWVRQAPGKGLEWVAVIWYDGSNKHYADSVKGRFTITRDNSKNTLNLQMNSLRAEDTAVYYCARAPQWELVHEAFDIWGQGTMVTVSS chain 2: SYVLTQPPSVSVAPGQTARITCGGNNLGSKSVHWYQQKPGQAPVLVVYDDSDRPSWIPERFSGSNSGNTATLTISRGEAGDEADYYCQVWDSSSDHVVFGGGTKLTVL	2.1%
unnamed (protein) chain 1: QVQLVESGGGVVQPGRSLRLSCAASGFTFSSYGMHWVRQAPGKGLEWVAVIWYDGSNKYYADSVKGRFTISRDNSKNTLYLQMNSLRAEDTAVYYCARDPRGATLYYYYYGMDVWGQGTTVTVSS chain 2: DIQMTQSPSSLSASVGDRVTITCRASQSINSYLDWYQQKPGKAPKLLIYAASSLQSGVPSRFSGSGSGTDFTLTISSLQPEDFATYYCQQYYSTPFTFGPGTKVEIK	2% and 0%
unnamed (protein) chain 1: EVQLVESGGGLVQPGGSLRLSCAASGFTFSSYVMSWVRQAPGKGLEWVATISSGGSYTYYPDSVKGRFTISRDNAKNTLYLQMNSLRAEDTAVYYCARRGDSMITTDYWGQGTLVTVSS chain 2: DIQMTQSPSSLSASVGDRVTITCKASQDVGTAVAWYQQKPGKAPKLLIYWASTRHTGVPSRFSGSGSGTDFTLTISSLQPEDFATYYCQQYSSYRTFGQGTKVEIK	0%
unnamed (protein) chain 1: QVQLVQSGAEVKKPGASVKVSCKASGYIFITYWMTWVRQAPGQGLEWMGQIFPASGSADYNEKFEGRVTMTTDTSTSTAYMELRSLRSDDTAVYYCARGGGGFAYWGQGTLVTVSS chain 2: DIQMTQSPSSLSASVGDRVTITCRTSENIYSYLAWYQQKPGKAPKLLIYNAKTLAEGVPSRFSGSGSGTDFTLTISSLQPEDFATYYCQHHYGIPFTFGQGTKVEIK	6.5%
unnamed (protein) chain 1: QVQLQESGPGLVRPSQTLSLTCTVSGYSITSDHAWSWVRQPPGRGLEWIGYISYSGITTYNPSLKSRVTMLRDTSKNQFSLRLSSVTAADTAVYYCARSLARTTAMDYWGQGSLVTVSS chain 2: DIQMTQSPSSLSASVGDRVTITCRASQDISSYLNWYQQKPGKAPKLLIYYTSRLHSGVPSRFSGSGSGTDFTFTISSLQPEDIATYYCQQGNTLPYTFGQGTKVEIK	2%
